Assay: yeast display, Sf9 membrane polyspecificity reagent, FACS + sequencing; frameworks hold sequencing errors
Summary of the method: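 Genes from sorted yeast were amplified by colony PCR, read by MiSeq 2 × 250 sequencing and filtered on CDR length. These cells carried a synthetic nanobody library in Saccharomyces cerevisiae BJ5465 and were sorted by FACS into low and high (top ~1%) gates on anti-HA and streptavidin fluorescence. Polyreactivity is labelled according to the gate of origin.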

Sequence: QVQLVESGGGLVQAGGSLRLSCAASGSNFSFNGLGWYRQAPGKERGLVAAITTSGGSTYYADSVKGRFTISRDNAKNTVYLQMNSLTPEDTAVYYCAAVGPDNSLYEPMDYWGLGTQVTVSS
- polyreactivity (PSR sort gate): low polyreactivity

Sequence: QVQLVESGGGLVQAGGSLRLSCAASGRTFYLYAMVCYRQAPGKERELVAAITNRGGSTYYADSVKGRFTISRDNAKNTVYLQMNSLKPEDTAVYYCAAQVSVYRGGYGYWGQGTQVTVSS
- polyreactivity (PSR sort gate): high polyreactivity

Sequence: QVQIVESGVGLVQAGGSLRLSCAASGRIVSSKVMGLYRQAAGKERELVAAITSGGSTYYADSVKGRFTISRDNAKNTVYLQMNSLKPEDTAVYYCAASYWVLRYRYDYWGQGTQVTVSS
- polyreactivity (PSR sort gate): high polyreactivity

Sequence: QVQLVESGGGLVQAGGSLRLSCAASGSIFGANAMGLYRQAPGKERELLATITLRDGSTYYADSVKGRFTISRDNAKNTVYLQRNSLKPEDTAVYYCATYYSAINYGCSKTILYDYWGQGTQVTVSS
- polyreactivity (PSR sort gate): low polyreactivity

Sequence: QVQLVESVGGIVQAGGSLRLSCAASGRIFGTNTMGWYRQAPGKERELVAGISSSGDSTYYADSVKGRFTISRDNAKNTVYLQMNSLKPEDTAVYYCNVYDYPTYDYWGQGTQVTVSS
- polyreactivity (PSR sort gate): low polyreactivity

Sequence: QVQLVESGGGLVQAGGSLRLSSAASGSTFTPYVMGWYRQAPGKERELVAAISKRGGSTYYADSVKGRFTISRDNANNTVYLQMNSLKPEDTAVYYCAAVQPAWGNGYWGQGTQVTVSS
- polyreactivity (PSR sort gate): high polyreactivity

Sequence: QVQLVESGGGLVQAGGSLRLSCAASGSTFYRYAMGWYRQAPGNERELVAVLRYTSGRTYYADSVKGRFTISRDNAKYTVYLQMNSLKREDTAVYYCATDPYGTRGTDSRYNYWGQGIQVTVSS
- polyreactivity (PSR sort gate): high polyreactivity

Sequence: QVQLVESGGGLVQAGGSLRLSCAASGSTFLRNAMGWYRQAPGKERELVATITNGGSTYYADSVKGRFTISRDNAKNTVYLQMNSLKPEDTAVYYCATRSSYWSWLRYGYGYWGQGTQVTVSS
- polyreactivity (PSR sort gate): low polyreactivity

Sequence: QVQLVESGGGLVQAGGSLRLSCAASGSTFWAYAMGWYRQAPGKERELVAAITTGGGRTFYADSVKGRFTISRDNAKNTVYLQMNSLKPEDTAVYYCAAVSQSYRMYYWGQGTQVTVSS
- polyreactivity (PSR sort gate): low polyreactivity

Sequence: QVQLVESGGGLVQAGGSLRLSCAASGNIFQRYAMGWYRQAPGKVRELVAAISGNGGNSFYADSVKGRFTISRDNAKYTVYLQMNSLKPEDTAVYYCNTVYVVYGFDYWGQGTQVTVSS
- polyreactivity (PSR sort gate): high polyreactivity

Sequence: QVQLEESGGGLVQAGGSLRLSCAASGINFSVYGMGGYRQATGKERELVASITKSGGTTYYADSVKGRFTISRDNAKNTVYLQMNSLKPEDTAVYYCAAAWSDKRVLSVYYAYYWGQGTQVTVSS
- polyreactivity (PSR sort gate): high polyreactivity

Sequence: QVQRVESGGGLVQAGGSLRLSCAASGSIFSIYAMGWNRQAPGKEMEFVAAIDSGTSTTYADSVKGRFTISRDNAKNTVYLQMNSLKPEDTAVYYCAAALYSDVAAVSTYGYYWGQGTQVTVSS
- polyreactivity (PSR sort gate): low polyreactivity

Sequence: QVQLVESGGGLVHAGGSLRLSSSASGSTFPVYAMGWYRQAPGKQRELVAAITSGVSTNYADSVKWRFTISRENAKNTVYLQMNSLKPEDTAVYYCAKDFGLLPIRDDYWGQGTQVTVSS
- polyreactivity (PSR sort gate): low polyreactivity

Sequence: QVQLVESGGGLVQAGGSLRLSCAASGSTFYPYDMGWYRQAPGKERELVATMTSTGGSTNYADSVKGRFTISRDNAKNTVYLQMNSLKPEDTAVYYCAKDWNDDQHSWDTPFDYWGQGTQVTVSS
- polyreactivity (PSR sort gate): low polyreactivity

Sequence: QVQLVESGGGLVQAGGSLRLSCAASGLTFNRNAMGWYRQAPGKERELVATISGSGASTYYADSVKGRFTISRDYAKNTVYLQMNSLKPEDTAVYDCAARWHYSWGSYGFDYWGQGTQVTVSS
- polyreactivity (PSR sort gate): high polyreactivity

Sequence: QVQLGESGGGLVQAGGSLRLSCAASGRIFGAYAMGWYRPAPGKERELVAAITSRGGNTYYADSVKGRFTISRDNAKKTAYLQLNSLKPQDTAVYYCAARHDKRRQYYVGQSAFDYGGQGTQVTVSS
- polyreactivity (PSR sort gate): low polyreactivity

Sequence: QVQLVESGGGLVQAGGSLRLSCAASGNIFGWYAMGWYRQAPGKERELVAAISSGGRTNYADSVKGRFTISRDNAKNTVYLQMNSLKPEDTAVYYCAVGLHKRPPPPRFRQYNYWGQGTQVTVSS
- polyreactivity (PSR sort gate): low polyreactivity

Sequence: QVQLVESGGGLVQAGGSLRLSCAAYGRTFEINAMGWYRQATGKERELVAAISWDDGSTYYADSVKGRFTISRDNAKNTVYLQMNSLKPEDTAVYYCAAESPLHYTHRRGYEYWGQGTQVTVSS
- polyreactivity (PSR sort gate): low polyreactivity

Sequence: QVQLVESGGGLVQAGGSLRLSCAASGFTFYSYAMGWYRQAPGKERELVAAISWSGTRTYYADSVKGRFTISRDNAKNTVYLQMNSLKPEDTAVYYCAARGYRYGYGYWGQGTQVTVSS
- polyreactivity (PSR sort gate): high polyreactivity

Sequence: QVQLVESGGGLVQAGGSLRLSCAASGRTFVWYVMGWYRQAPGKERELVAAISLRGGTTYYADSVKGRFTISRDNAKNTVYLQMNSLKPEDTAVYYCAIAGIRHVTSKFKGYHFGYWGQGTQVTVSS
- polyreactivity (PSR sort gate): low polyreactivity

Sequence: QVQLVESGGGLVQAGGSLRLSCAASGRIFWSNAMGWYRQAPGKERELVAAIRWSGGSTYYADSVKGRCTISRDNAKTTVYLQMNSLKPEDTAVYYCAASPYWSDWTKVDSWGQGTQVTVSS
- polyreactivity (PSR sort gate): low polyreactivity

Sequence: QVQLVESGGGLVQAGGSLRLSCAASGSIFRLNAMGWYRQAPGKERELVAAITSSGGNTYYADSVKGRFTISRDNAKNTVYLQMNSLKPEDTAVYYCATRAYARWYGYWGQGTQVTVSS
- polyreactivity (PSR sort gate): low polyreactivity

Sequence: QVQLVESGGGLVQAGGSLRLSCAASGSTFPFYAMGWYRQAPGKERELVAAITSGGSTYADSVKGRFTISRDNAKNTVYLQMNSLKAEVTAVYYCAASWPRWWRFGYWGQGTQVSVSS
- polyreactivity (PSR sort gate): low polyreactivity

Sequence: QVQLVESGGGLVQAGGSLRLSCAASGSILSAYAMGWSRQAPGKERELVAAISWSGGSTYYADSVKGRFTISRDNAKNTVYLQMNSLKPEDTAVYYCATVNKKWRRYDYWGQGTQVTVSS
- polyreactivity (PSR sort gate): high polyreactivity

Sequence: QVQLVESGGGLVQAGGSLRLSCAATGRTFEGYAMGWYRQAPGKERELVAAISNSGGSTYYADSVKGRFTISRDNAKNTVYLQMNSLKPEDTAVYDCAALSRIRRYGYWGQGTQVNVSS
- polyreactivity (PSR sort gate): high polyreactivity

Sequence: QVQLVESGGGLVQAGGSLRLSCAASGYTFNYYAMGWYRQAPGKEREFVASTYADSVKGRFTISRDNAKNTVYLQMNSLKPEDTAVYYCNARNLGRYLVLSYGYWRQGTQVTVSS
- polyreactivity (PSR sort gate): low polyreactivity

Sequence: QVQLVESGGGLVQAGGSLRLSCAASGIIFDWYAMGWYRQAPGKERELVAAISDSGDTTYYADSVKGRFTISRDNAKNTVYLQMNSLKPEDTAVYYCNARVIGIYGYWGQGTQVTVSS
- polyreactivity (PSR sort gate): high polyreactivity

Sequence: QVQIVESGGGLVQAGGSLRLSCAASGTTFDAYAMGWYRQAPGKERELVAAITNAGSTNYADSVKGRFTISRDNAKNTVYLQMNSLKPEETAVYYCATDWYHRYLDGRYDYWGQGTQETVSS
- polyreactivity (PSR sort gate): low polyreactivity

Sequence: QVQLVESGGGLVQAGGSLRLSCAASGRIFRRNTMGWYRQAPGKERELVAAITSSGGSTYADSVKGRFTISRDNAKNTVYLQMKSLKPEDTAVYYCATYVAYHRGYRTYDHWGQGTQVTVSS
- polyreactivity (PSR sort gate): low polyreactivity

Sequence: QVQLVESGGGLVQAGGSLRLSCAASGSTFAANAMGWYRQAPGKERELVAVIRRGGSTTYADSVKGRFTISRDNAKNTVYLQMNSLKPEDTAVYYCHARVTLGRPLFTYLVRYEYWGQGTQVTVSS
- polyreactivity (PSR sort gate): high polyreactivity

Sequence: QVQLVESGGGLVQAGGSLRLSCAASGLIFYGNAMGWYRQEPGKERELVAAISWSGGNTSYADSVKGRFTISRDNAKNTVYLQMNSLKPEVTAVYYCNADSLPSVERYGYWGQGTQVTVSS
- polyreactivity (PSR sort gate): low polyreactivity

Sequence: QVQLVESGGGLVQARGSLRLSCAASGSTFSYYTMGWYREAPGKERELVAAITRRGDSTYADSVKGRFTISRDNAMNTVYLQLNSLKPEDTAVYYFAADDYVGVSGMDYWGQGTQVTVSS
- polyreactivity (PSR sort gate): low polyreactivity

Sequence: QVQLVESGGGLVQAGGSLSLSCAASGSTFSPYAMGWYRQAPGKERELVAAITGSTGSTYYADSVKGRFTISRDNAKNTVYLQMNCLKPEDTAVYYCAAVSSNAGHVSRRRGYYWGQGTQVTVSS
- polyreactivity (PSR sort gate): high polyreactivity

Sequence: QVQLVESGGGLVQAGGSLRLSCAASGYTFRWYAMGWYRQAPGKERELVAAISWSTGRTYYADSVKGRFTISRDNAKNTVYLQMNSLKPEDNAVYYCAASYYVYSGGNYLRYDSWGQGTQVTVSS
- polyreactivity (PSR sort gate): high polyreactivity

Sequence: QVQLVESGGGLVQAGGSLRLSCAASGNIFVAYAMGWYRQAPGKERELVAAITYNGGRTYYADSVKGRFTISRDNAKNTVYLQMNSLKPEDTAVYYCAARGYNPYGRKVGYWGQGTQVTVSS
- polyreactivity (PSR sort gate): high polyreactivity

Sequence: QVQLVESGGGLVQAGGSLRLSCAASGSIFYFNAMGWYRQAPGKERELVAAITYSGGSTYYADSVKGRFTISRDNAKNTFYLQMNILKPEDTAVYYCAAERRTFPLRIFDYWGQGTQVTVSS
- polyreactivity (PSR sort gate): low polyreactivity

Sequence: QVQLVESGGGLVQAGGSLRLSCAASGINFGRNAMGWYSQAPGKERELVAAITRRGGRTNYADSVKGRFTISRDNAKNTVYLQMNSLKPEDNAVYYCNAHGRPAEAGYDYWGQATQVTVSS
- polyreactivity (PSR sort gate): high polyreactivity

Sequence: QVQLVESGGGLVQAGGSLRLSCAASGRIFRGNAMGWYRQAPGKERELVARITGNDGDTYYADSVKGRFTISRDNAKNTVYLQMNSLKPEDTAVYYCATDTSSYRRRYYYWGQGTQVTVSS
- polyreactivity (PSR sort gate): low polyreactivity

Sequence: QVQLVESGGGLVQAGGSLRLSCAASGRTFSPYPMGWYRQAPGKERELGAAINWTGGSTYYADSVKGRFTISRDNAKNTVYLQMNSLKPEVTAVYYCNADWWYGYDYWGQGTQVTVSS
- polyreactivity (PSR sort gate): low polyreactivity

Sequence: QVQLVESGGGLVQAGGSLRLSCAASGSTFGHNAMGWYRQAPGKERELVAAIDSGDGTTYADSVKGRFTISRDNAKNTVYLQMNSLKPEDSAVYYWNVDLTTVGLWYYYRPGYDFWGQGTQVTVSS
- polyreactivity (PSR sort gate): low polyreactivity

Sequence: QVQLVESGGGLVQAGGSLRLSCAASGSIFGDYAMGWYRQAPGKEREFVAGITRRGGRTYYADSVKGRFTISRDNAKNTVYLQMNSLKPEETAVYYCNAVYSSSLRSKYDYWGQGTQVTVSS
- polyreactivity (PSR sort gate): high polyreactivity

Sequence: QVQLVESGGGLVQAGGSLRLSCAASGSTFKYYAMGWYRQAPGKERELVARISSGGNTKYADSVKGRFTISRDNAMNTVYLQMNSLKPEDTAVYYCAAGYPGVGYAYDYWGQGTQVTVSS
- polyreactivity (PSR sort gate): high polyreactivity

Sequence: QVQLVESGGGLVQAGGSLRLSCAASGRIFVSNAMGWYRQAPGKERELVAAISKSGGRTYYADSVKGRFTISRVNAKNTVYLQMNSLKPEDTAVYYCAARSRVSPRYDYWGQGTQVTVSS
- polyreactivity (PSR sort gate): high polyreactivity

— the nanobody polyreactivity screen of Harvey et al. (2022)
